Laboratory results: US7977082B2, “Isomaltulose synthases, polynucleotides encoding them and uses therefor” (The University of Queensland of St. Lucia, priority 2001, dated 2011)

Experiments:
[1] = biological target: T1, Pantoea dispersa 68J sucrose isomerase (SI), mature, SEQ ID NO: 10, carboxy-terminal 6×His tag (SEQ ID NO: 52) (Pantoea dispersa, UniProt Q6XNK6); assay: Sucrose isomerase kinetics, purified SI from P. dispersa 68J (isomaltulose production), with or without glucose/fructose; type: biochemical; conditions: sucrose, isomaltulose production
T1 sequence (Q6XNK6 34-598): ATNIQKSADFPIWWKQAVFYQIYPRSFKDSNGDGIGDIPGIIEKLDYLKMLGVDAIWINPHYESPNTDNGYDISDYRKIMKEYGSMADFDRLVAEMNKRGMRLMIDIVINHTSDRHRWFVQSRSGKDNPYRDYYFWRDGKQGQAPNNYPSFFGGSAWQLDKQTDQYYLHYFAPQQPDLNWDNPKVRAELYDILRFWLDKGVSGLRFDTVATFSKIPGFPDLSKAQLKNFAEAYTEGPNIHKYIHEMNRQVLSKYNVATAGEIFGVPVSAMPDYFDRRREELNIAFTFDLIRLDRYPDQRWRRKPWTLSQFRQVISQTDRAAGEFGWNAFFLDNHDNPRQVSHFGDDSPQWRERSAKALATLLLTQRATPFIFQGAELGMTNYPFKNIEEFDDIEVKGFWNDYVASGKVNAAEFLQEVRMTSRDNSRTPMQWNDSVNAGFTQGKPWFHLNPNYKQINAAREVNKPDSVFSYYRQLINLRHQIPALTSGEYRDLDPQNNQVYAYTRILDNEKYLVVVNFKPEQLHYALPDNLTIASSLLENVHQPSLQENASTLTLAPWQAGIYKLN
Method: (§1) The pET24b vector introduces a carboxy-terminal 6×His tag (SEQ ID NO: 52) on expressed proteins, which were purified by adsorption to Ni-NTA agarose (Qiagen) and elution with 25 mM NaH2PO4, 150 mM NaCl, 125 mM imidazole buffer (pH8.0) following the manufacturer's instructions. For storage, the eluted solution was diluted with 50% glycerol. The purity of SI proteins was tested by SDS-PAGE as described below. A batch procedure using Ni-NTA agarose in suspension yielded predominantly (80-95%) SI with a background of several other protein bands. A procedure using Ni-NTA agarose in adsorption columns yielded preparations containing a single protein band. Unless otherwise specified, this is the form of the purified SI enzymes used for biochemical characterisation.
(§2) Enzyme activities were measured by incubating 5 μl of purified enzyme with 95 μL of sucrose solution at a final concentration of 584 mM in 0.1 M citrate/phosphate buffer (pH 6.0) at 30° C. Sugar profiles in the reaction mix were analysed at intervals by CE as described previously. One unit (U) of SI activity was defined as the amount of enzyme that could release 1 μmol of isomaltulose in one minute at the initial stage of the reaction.
(§3) SI activity was measured by incubating the purified enzyme with different sucrose concentrations (3, 6, 15, 58, 146, 292, 584, 877, 1169 and 1461 mM) under standard assay conditions, and also with addition of glucose, fructose or both to a final concentration of 277 mM. Data were analyzed according to the method of Lineweaver and Burk (Voet and Voet, 1995) to calculate Km and Vmax values.

[2] = biological target: T2, Klebsiella sp. 14S sucrose isomerase (SI), carboxy-terminal 6×His tag (SEQ ID NO: 52) (Klebsiella planticola, UniProt Q6XKX6); assay: Sucrose isomerase kinetics, purified SI from Klebsiella sp. 14S (isomaltulose production), with or without glucose/fructose; type: biochemical; conditions: sucrose, isomaltulose production, pH 6.0, 30° C., Lineweaver and Burk
T2 sequence (Q6XKX6 29-598): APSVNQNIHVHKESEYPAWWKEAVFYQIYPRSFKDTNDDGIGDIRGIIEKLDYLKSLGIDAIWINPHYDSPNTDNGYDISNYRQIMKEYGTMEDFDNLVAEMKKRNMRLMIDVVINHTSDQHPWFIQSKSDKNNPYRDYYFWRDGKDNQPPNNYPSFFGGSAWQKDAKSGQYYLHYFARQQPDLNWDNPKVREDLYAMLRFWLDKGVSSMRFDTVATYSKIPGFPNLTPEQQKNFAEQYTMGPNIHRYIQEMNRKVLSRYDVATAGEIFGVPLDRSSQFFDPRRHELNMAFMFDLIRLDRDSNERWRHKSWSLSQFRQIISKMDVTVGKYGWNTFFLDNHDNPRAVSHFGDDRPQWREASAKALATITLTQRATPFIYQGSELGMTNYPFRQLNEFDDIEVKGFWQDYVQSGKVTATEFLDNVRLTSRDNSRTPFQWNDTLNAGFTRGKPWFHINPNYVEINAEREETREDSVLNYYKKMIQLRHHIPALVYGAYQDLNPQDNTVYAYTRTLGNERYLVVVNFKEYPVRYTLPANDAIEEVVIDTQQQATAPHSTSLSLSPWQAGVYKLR
Method: as §1, with “Unless otherwise specified, this is the form of the purified SI enzymes used for biochemical characterisation.” left out
Enzyme activities were measured by incubating 5 μl of purified enzyme with 95 μL of sucrose solution at a final concentration of 584 mM in 0.1 M citrate/phosphate buffer (pH 6.0) at 30° C. Sugar profiles in the reaction mix were analysed at intervals by CE as described previously. […]
as §3

[3] = tested on: Klebsiella sp. LX3 sucrose isomerase; conditions: isomaltulose product; Zhang et al. 2002; cited from earlier work
[4] = tested on: Klebsiella sp. sucrose isomerase; conditions: isomaltulose product; Park et al. 1996; cited from earlier work
[5] = tested on: Serratia plymuthica ATCC 15928 sucrose isomerase; conditions: isomaltulose product; Véronèse & Perlot 1999; cited from earlier work
[6] = tested on: Pseudomonas mesoacidophila MX-45 sucrose isomerase; conditions: trehalulose product; Nagai et al. 1994; cited from earlier work
[7] = Conversion of sucrose into isomaltulose by E. coli cells expressing cloned SI genes; type: cell-based
Method: The three sucrose isomerase genes in the pCR®2.1 vector were cut and cloned into pGEM®-3Zf(+) then into pET 24b vector (Novagen) for expression in E. coli BL21(DE3) strain. Five mL LB medium with 50 μg/mL kanamycin was used for the BL21(DE3) cell culture. Fifteen cultures per construct were set up initially. Cells were grown at 37° C. at 225 rpm shaking. Six to ten cultures per construct, with OD600 1.000±0.005, were selected for further induction. After 0.5 mL was sampled from each culture, IPTG was added to the culture to a final concentration of 1.0 mM. Incubation of the cultures was continued for another 3 hours. The induced cultures only with OD600 1.750±0.005 were further selected for sucrose conversion analysis and protein measurement, allowing analysis of three replicate cultures per construct. From each of the selected IPTG-induced cultures, 1.5 mL was sampled for protein quantification, 0.5 mL for protein SDS-PAGE, 1.0 mL for quantification of conversion efficiency from sucrose into isomaltulose.
The 1.0 mL culture was centrifuged, then resuspended in citrate/phosphate (pH 6.0) buffered 50% sucrose solution and assayed for isomaltulose conversion by CE analysis as described above. Conversion ratio was calculated by sucrose peak area and isomaltulose peak area normalised against standards of known concentration, using the software of Beckman P/ACE 5000 Series C.E. System.
Fifteen cultures per construct were set up in 5 mL LB medium (Sambrook and Russell, 2001) with 50 μg/mL kanamycin in a 30 mL universal tube. Cells were grown at 37° C. at 225 rpm shaking. Six to ten cultures per construct, with OD600=1.00 were selected for further induction. After 0.5 mL was sampled from each culture, IPTG was added to a final concentration of 0.5 mM and incubation of the cultures was continued for another 3 h at 28° C. This allowed selection of three replicate cultures per construct with the same OD600 for sucrose conversion analysis and protein measurement. From each of the selected cultures, 1.5 mL was sampled for protein quantification, 0.5 mL for protein SDS-PAGE, and 1.0 mL for quantification of conversion efficiency from sucrose into isomaltulose. For SI protein purification experiment, the culture volume was scaled up to 25 mL in a 250 mL flask.
The 1.0 mL culture sample was centrifuged at 12,000×g for 1 min, then resuspended in 5 mL of 0.1 M citrate/phosphate (pH 6.0) buffered 50% sucrose solution and incubated for 4 h at 37° C. with 225 rpm shaking. Conversion ratio was calculated from sucrose and isomaltulose peak areas normalised against standards of known concentration, using a Beckman P/ACE 5000 CE as described previously herein.

[8] = Assay of isolated (purified) SI enzyme activity; type: biochemical
Method: as §1, §2
The enzymes were incubated with sucrose at different pH ranging from 2.0 to 10.6. The solution of pH 2.0 was buffered in 0.2 M KCl; pH 3.0 to pH 9.0 were in 0.1 M citrate/phosphate buffer; pH 10.0 to pH 10.6 were in 0.2 M glycine buffer. The effect of temperature from 10° C. to 70° C. was measured at pH 6.0. […]

[9] = Storage stability of purified SI proteins; type: physicochemical
Method: The purified fresh enzymes from SDS-PAGE had specific activities for isomaltulose production of: E. rhapontici: 35 U mg^−1 protein, Klebsiella sp.: 95 U mg^−1 protein and P. dispersa: 632 U mg^−1 protein. The purified SI from E. rhapontici lost function during overnight storage at −20° C. in elution buffer diluted with 50% glycerol. In contrast, the purified enzymes from 14S or P. dispersa retained 100% of the fresh enzyme efficiency for isomaltulose production after 6-month storage at −20° C., or 60% after 15-day storage at room temperature in the same buffer. Because of instability, the E. rhapontici SI was not characterised further in purified form. Cheetham et al., (1984) found substantial differences between E. rhapontici strains for SI stability in immobilized cells, and the enzyme from strain NCPPB 1578 was stable in purified form (Cheetham, 1984).
as §1

[10] = Isomaltulase activity of the purified enzyme; type: biochemical; conditions: 50 mM isomaltulose, 30° C., 30 minutes, pH 3.0 to 7.0
Method: (§4) Isomaltulase activity of the purified enzyme was investigated by incubation with 50 mM isomaltulose at 30° C. for 30 minutes at each of pH 3.0, 4.0, 5.0, 6.0 and 7.0. Glucose and fructose were tested as substrates under the same reaction conditions.

[11] = Glucose and fructose tested as substrates of the purified enzyme; type: biochemical; conditions: 30° C., 30 minutes, pH 3.0 to 7.0
Method: as §4

[12] = E. coli, pET 24b, same expression conditions

OC[C@H]1O[C@@](CO)(O[C@H]2O[C@H](CO)[C@@H](O)[C@H](O)[C@H]2O)[C@@H](O)[C@@H]1O [sucrose, α-D-glucosyl-1,2-D-fructose]
Vmax [1]: 637 μmoles isomaltulose/mg protein/min
Vmax ([1]; pH 6.0, 30° C., Lineweaver and Burk): 637 U mg^−1
Vmax [2]: 100 U mg^−1
Km [3]: 54.6 mM
Vmax [4]: 110 U mg^−1
Km [5]: 65 mM
Vmax [5]: 120 U mg^−1
Km [6]: 19.2 mM

B1: P. dispersa SI: sucrose isomerase cloned from bacterial isolate 68J, SEQ ID NO: 8, mature polypeptide SEQ ID NO: 10 (protein)
chain: MFLNGFKTVIALTMASSFYLAASPLTKPSTPIAATNIQKSADFPIWWKQAVFYQIYPRSFKDSNGDGIGDIPGIIEKLDYLKMLGVDAIWINPHYESPNTDNGYDISDYRKIMKEYGSMADFDRLVAEMNKRGMRLMIDIVINHTSDRHRWFVQSRSGKDNPYRDYYFWRDGKQGQAPNNYPSFFGGSAWQLDKQTDQYYLHYFAPQQPDLNWDNPKVRAELYDILRFWLDKGVSGLRFDTVATFSKIPGFPDLSKAQLKNFAEAYTEGPNIHKYIHEMNRQVLSKYNVATAGEIFGVPVSAMPDYFDRRREELNIAFTFDLIRLDRYPDQRWRRKPWTLSQFRQVISQTDRAAGEFGWNAFFLDNHDNPRQVSHFGDDSPQWRERSAKALATLLLTQRATPFIFQGAELGMTNYPFKNIEEFDDIEVKGFWNDYVASGKVNAAEFLQEVRMTSRDNSRTPMQWNDSVNAGFTQGKPWFHLNPNYKQINAARXVNKPDSVFSYYRQLINLRHQIPALTSGEYRDLDPQNNQVYAYTRILDNEKYLVVVNFKPEQLHYALPDNLTIASSLLENVHQPSLQENASTLTLAPWQAGIYKLN
modifications: not fully specified; X: residue not identified in the source
conversion efficiency from sucrose to isomaltulose, times that of the 14S (Klebsiella sp.) gene product/clone [7, 12]: 18 times
conversion efficiency from sucrose to isomaltulose, times that of the Erwinia rhapontici gene product/clone [7, 12]: 10 times
proportions of glucose and fructose generated ([7]; compared with 14S (Klebsiella sp.) and Erwinia rhapontici SIs): smaller proportions of glucose and fructose
efficiency of the soluble enzyme, times that of the Erwinia and Klebsiella enzymes ([7]; intact cell assay, estimated): 6-38 times
monosaccharides, share of the products ([8]; from pH 4 to 8): less than 20%
activity at 10° C., of activity at optimal temperature ([8]; purified SI): 15%
activity at 60° C. ([8]; purified SI): still active
isomaltulose production at pH 3 and pH 8 ([8]; purified SI): some isomaltulose was still produced
optimal pH for isomaltulose production ([8]; purified SI): 5
time until all sucrose was converted ([8]; purified SI): ≤ 45 min
sucrose converted to isomaltulose (of consumed sucrose) ([8]; purified SI, complete conversion, remainder glucose and fructose): 91%
optimal temperature for isomaltulose production ([8]; purified SI, pH 6.0): 37 °C
specific activity for isomaltulose production ([8]; purified fresh His-tagged enzymes): 632 U mg^−1 protein
fresh enzyme efficiency for isomaltulose production retained ([9]; 6-month storage at −20° C., elution buffer with 50% glycerol): 100%
fresh enzyme efficiency for isomaltulose production retained ([9]; 15-day storage at room temperature, same buffer): 60%
hydrolysis of isomaltulose [10]: did not hydrolyse isomaltulose
product from glucose and fructose as substrates [11]: no product was detected
